From patent US20260242478A1 (published 2026)
Where no end group is shown, it is not given here.

B1: Phage-109 (peptide)
peptide: MDWCPKNLWHVCFN
modifications: cysteine pairing not given here; also: phage-displayed pIII fusion, pIII and linker not given here
B2: Phage-113 (peptide)
peptide: MDWCPRDLWNVCFF
modifications: cysteine pairing not given here; also: phage-displayed pIII fusion, pIII and linker not given here
B3: Phage-1335 (peptide)
peptide: LCAAGASWPWPVCL
B4: Phage-1341 (peptide)
peptide: LCAAGATYPWPLCL
B5: Phage-1344 (peptide)
peptide: LCAAGATYPWPTCL
B6: Phage-99 (peptide)
peptide: MDWCPRYLWNMCFH
modifications: cysteine pairing not given here; also: displayed on phage as fusion to pIII, linker not given here
B7: Phage-473 (peptide)
peptide: YCAGMSTIQLWLKC
B8: Phage-98 (peptide)
peptide: MDWCPKYLWDVCFN
modifications: cysteine pairing not given here; also: displayed on phage as fusion to pIII, linker not given here
B9: Phage-1339 (peptide)
peptide: TCAAGATWSWPACF
B10: Phage-1981 (peptide)
peptide: PPILCIPQWMCSPT
modifications: cysteine pairing not given here; also: displayed as fusion to phage pIII
B11: Phage-1982 (peptide)
peptide: VGMLCKPSWMCDWL
notes: tested as crude phage supernatant
B12: Phage-115 (peptide)
peptide: MDWCPRYLWHECFN
modifications: cysteine pairing not given here; also: phage-displayed pIII fusion, pIII and linker not given here
B13: Phage-100 (peptide)
peptide: MDWCPRYLWTECFN
modifications: cysteine pairing not given here; also: phage-displayed pIII fusion, pIII and linker not given here
B14: Phage-110 (peptide)
peptide: MDWCPRYLWDECFN
modifications: cysteine pairing not given here; also: phage-displayed pIII fusion, pIII and linker not given here
B15: Phage-1986 (peptide)
peptide: YEKWCTPPWMCEML
notes: as for B11
B16: Phage-1983 (peptide)
peptide: IFEWCVPAWMCESR
notes: as for B11
B17: Phage-1987 (peptide)
peptide: VEKWCTPPWMCAGW
modifications: cysteine pairing not given here; also: displayed as fusion to phage pIII
notes: as for B11
B18: Phage-1984 (peptide)
peptide: VVKMCRPAWMCDLV
notes: as for B11
B19: Phage-1336 (peptide)
peptide: TCSAGASYPWPLCL
B20: Phage-1342 (peptide)
peptide: TCSAGAAYPWPLCL
B21: Phage-474 (peptide)
peptide: YCAGHMPQYEVKCL
B22: Phage-1985 (peptide)
peptide: LENWCIPRWMCHGF
notes: as for B11
B23: Phage-1340 (peptide)
peptide: TCAAGAAWGWPLCF
B24: Phage-114 (peptide)
peptide: MDWCPRYLWFECFA
modifications: cysteine pairing not given here; also: phage-displayed pIII fusion, pIII and linker not given here
B25: Phage-477 (peptide)
peptide: YCAGHSHEYLAKCE
notes: also called YCAGHSHEYLAKCE
B26: Phage-1989 (peptide)
peptide: EPKLCTPTWMCIGF
notes: as for B11
B27: Phage-1990 (peptide)
peptide: LMKWCIPEWMCVDS
notes: as for B11
B28: Phage-476 (peptide)
peptide: YCMGHSHEHIWKCL
B29: Phage-475 (peptide)
peptide: YCAGHTEEHYVKCM
B30: Phage-116 (peptide)
peptide: MDWCPRDLWYACFA
modifications: cysteine pairing not given here; also: phage-displayed pIII fusion, pIII and linker not given here
B31: Phage-1338 (peptide)
peptide: TCSAGATYTWPKCF
B32: Phage-112 (peptide)
peptide: MHWCPRALWDVCYN
modifications: cysteine pairing not given here; also: phage-displayed pIII fusion, pIII and linker not given here
B33: Phage-111 (peptide)
peptide: MDWCPFYLWNECFY
modifications: cysteine pairing not given here; also: phage-displayed pIII fusion, pIII and linker not given here
B34: Phage-97 (peptide)
peptide: MDWCPKDLWDYCFA
modifications: cysteine pairing not given here; also: displayed on phage as fusion to pIII, linker not given here
B35: Phage-1343 (peptide)
peptide: TCSAGAAYSWPACF
B36: Phage-1988 (peptide)
peptide: LDNWCRPLWMCTGF
notes: as for B11
B37: Phage-1334 (peptide)
peptide: TCSAGATWPWPICL
B38: Phage-1337 (peptide)
peptide: TCAAGAAWPWPQCL

Tests used:
[1] = molecular target: T1, anti-CD28 scFv (VH - linker 1 - VL) (biotinylated (site not given)); assay: phage ELISA as above; wells pre-incubated with soluble CD28 as competitor;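 note: crude clonal phage supernatants tested, with bound phage detected by HRP-conjugated anti-M13 antibody, and reference wells given blocking buffer without CD28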
T1 construct: Biotinylated scFv captured on neutravidin coated plates in the panning ELISA

[2] = molecular target: T1, anti-CD28 scFv (VH - linker 1 - VL); assay: phage ELISA; biotinylated anti-CD28 scFv on neutravidin plate, clonal phage supernatant, anti-M13 HRP
Experimental: Clonal phage were harvested as crude supernatants and screened via standard enzyme linked immunosorbent assays (ELISAs). […] Prior to the addition of clonal phage, wells were incubated with blocking buffer and CD28 soluble protein or blocking buffer alone. Without washing or aspirating, clonal phage supernatants were then added to the wells and incubated for a short time. Wells were then washed followed by detection of bound phage using a horse radish peroxidase conjugated anti-M13 antibody.

[3] = molecular target: T2, Anti-CD28 Fab (SEQ ID NOs: 696, 697); assay: phage binding ELISA; biotinylated anti-CD28 Fab on neutravidin plate, clonal phage supernatant, anti-M13 HRP detection;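 note: wells pretreated with blocking buffer, either plus or minus CD28 antigen, then given crude phage supernatant briefly without washing in between, then washed before anti-M13 HRP readout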
T2 construct: Biotinylated and captured on neutravidin coated plates in the phage ELISA
Experimental: (§1) Clonal phage were harvested as crude supematants and screened via standard ELISAs. […] Prior to the addition of clonal phage, wells were incubated with blocking buffer and CD28 antigen or blocking buffer alone. Without washing or aspirating, clonal phage supematants were then added to the wells and incubated for a short time. Wells were then washed followed by detection of bound phage using a horse radish conjugated anti-M13 antibody.

[4] = molecular target: T2, Anti-CD28 Fab (SEQ ID NOs: 696, 697); assay: phage binding ELISA; Fab coated wells pre-incubated with CD28 antigen as competitor, anti-M13 HRP detection
Experimental: as §1

[5] = molecular target: T3, Anti-PSMA Fab (SEQ ID NOs: 19, 20); assay: phage ELISA; biotinylated PSMA Fab on neutravidin plate, clonal phage supernatant, anti-M13-HRP detection;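 note: wells were preincubated with blocking buffer containing PSMA antigen or with blocking buffer only, then phage supernatant was added without washing for a brief incubation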
T3 construct: Biotinylated and captured on neutravidin coated plates in the phage ELISA; also called 006 PSMA Fab
Experimental: (§2) Clonal phage were harvested as crude supernatants and screened via standard ELISAs. […] Prior to the addition of clonal phage. wells were incubated with blocking buffer and PSMA antigen or blocking buffer alone. Without washing or aspirating, clonal phage supernatants were then added to the wells and incubated for a short time. Wells were then washed followed by detection of bound phage using a horse radish conjugated anti-M13 antibody.

[6] = molecular target: T3, Anti-PSMA Fab (SEQ ID NOs: 19, 20); assay: phage ELISA; PSMA Fab on plate pre-incubated with PSMA antigen as competitor, anti-M13-HRP detection;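 note: clonal phage from crude supernatants added without washing to wells preblocked with or without PSMA antigen, washed, bound phage read out by ELISA with HRP-linked anti-M13 antibody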
Experimental: as §2

T1 sequence (scFv, as listed by the source): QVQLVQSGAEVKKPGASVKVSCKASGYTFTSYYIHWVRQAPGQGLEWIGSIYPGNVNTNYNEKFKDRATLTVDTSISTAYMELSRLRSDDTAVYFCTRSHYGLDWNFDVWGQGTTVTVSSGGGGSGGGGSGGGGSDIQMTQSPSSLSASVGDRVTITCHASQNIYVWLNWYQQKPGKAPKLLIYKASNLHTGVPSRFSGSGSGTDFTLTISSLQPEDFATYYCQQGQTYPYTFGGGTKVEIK
T2 sequence (VH, as listed by the source, chain 1 of 2): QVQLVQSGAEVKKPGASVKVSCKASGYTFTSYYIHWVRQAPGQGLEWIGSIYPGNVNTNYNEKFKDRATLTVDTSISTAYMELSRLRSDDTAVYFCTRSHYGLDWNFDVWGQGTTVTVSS
T2 sequence (VL, as listed by the source, chain 2 of 2): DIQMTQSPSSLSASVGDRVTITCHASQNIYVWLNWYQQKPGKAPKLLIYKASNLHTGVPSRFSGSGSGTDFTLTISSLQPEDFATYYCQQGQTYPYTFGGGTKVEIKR

| Binder | CD28 scFv signal in presence of CD28 [1] | CD28 scFv signal [2] | Anti-CD28 Fab (SEQ ID NOs: 696, 697) signal [3] | Anti-CD28 Fab signal in the presence of CD28 [4] | also measured |
| --- | --- | --- | --- | --- | --- |
| B1 | 0.248 | 2.53 |  |  |  |
| B2 | 0.137 | 2.52 |  |  |  |
| B3 |  |  | 2.16 | 0.08 |  |
| B4 |  |  | 2.39 | 0.07 |  |
| B5 |  |  | 1.71 | 0.06 |  |
| B6 | 0.404 | 2.56 |  |  |  |
| B7 |  |  | 2.16 | 0.09 |  |
| B8 | 0.422 | 2.57 |  |  |  |
| B9 |  |  | 2.23 | 0.07 |  |
| B10 |  |  |  |  | Phage binding ELISA, Anti-PSMA Fab signal [5]: 1.88; Phage binding ELISA, Anti-PSMA Fab signal in the presence of PSMA [6]: 0.0785 |
| B11 |  |  |  |  | Phage binding ELISA, Anti-PSMA Fab signal [5]: 1.88; Phage binding ELISA, Anti-PSMA Fab signal in the presence of PSMA [6]: 0.0813 |
| B12 | 0.421 | 2.49 |  |  |  |
| B13 | 0.549 | 2.56 |  |  |  |
| B14 | 0.283 | 2.53 |  |  |  |
| B15 |  |  |  |  | Phage binding ELISA, Anti-PSMA Fab signal [5]: 1.88; Phage binding ELISA, Anti-PSMA Fab signal in the presence of PSMA [6]: 0.0833 |
| B16 |  |  |  |  | Phage binding ELISA, Anti-PSMA Fab signal [5]: 1.88; Phage binding ELISA, Anti-PSMA Fab signal in the presence of PSMA [6]: 0.104 |
| B17 |  |  |  |  | Phage binding ELISA, Anti-PSMA Fab signal [5]: 1.87; Phage binding ELISA, Anti-PSMA Fab signal in the presence of PSMA [6]: 0.0659 |
| B18 |  |  |  |  | Phage binding ELISA, Anti-PSMA Fab signal [5]: 1.88; Phage binding ELISA, Anti-PSMA Fab signal in the presence of PSMA [6]: 0.0833 |
| B19 |  |  | 2.38 | 0.06 |  |

| Binder | CD28 scFv signal in presence of CD28 [1] | CD28 scFv signal [2] | Anti-CD28 Fab (SEQ ID NOs: 696, 697) signal [3] | Anti-CD28 Fab signal in the presence of CD28 [4] | also measured |
| --- | --- | --- | --- | --- | --- |
| B20 |  |  | 2.36 | 0.08 |  |
| B21 |  |  | 0.22 | 0.06 |  |
| B22 |  |  |  |  | Phage binding ELISA, Anti-PSMA Fab signal [5]: 1.88; Phage binding ELISA, Anti-PSMA Fab signal in the presence of PSMA [6]: 0.152 |
| B23 |  |  | 2.3 | 0.07 |  |
| B24 | 0.21 | 2.5 |  |  |  |
| B25 |  |  | 0.86 | 0.06 |  |
| B26 |  |  |  |  | Phage binding ELISA, Anti-PSMA Fab signal [5]: 1.87; Phage binding ELISA, Anti-PSMA Fab signal in the presence of PSMA [6]: 0.118 |
| B27 |  |  |  |  | Phage binding ELISA, Anti-PSMA Fab signal [5]: 1.87; Phage binding ELISA, Anti-PSMA Fab signal in the presence of PSMA [6]: 0.0631 |
| B28 |  |  | 0.87 | 0.07 |  |
| B29 |  |  | 0.62 | 0.07 |  |
| B30 | 0.242 | 2.47 |  |  |  |
| B31 |  |  | 1.87 | 0.06 |  |
| B32 | 0.24 | 2.53 |  |  |  |
| B33 | 0.594 | 2.53 |  |  |  |
| B34 | 0.165 | 2.57 |  |  |  |
| B35 |  |  | 1.89 | 0.15 |  |
| B36 |  |  |  |  | Phage binding ELISA, Anti-PSMA Fab signal [5]: 1.87; Phage binding ELISA, Anti-PSMA Fab signal in the presence of PSMA [6]: 0.0836 |
| B37 |  |  | 2 | 0.07 |  |
| B38 |  |  | 2.23 | 0.08 |  |
